Data as given in patent publication US12274759B2, “Affibody proteins specific for B7-H3 (CD276)” (THE BOARD OF TRUSTEES OF THE LELAND STANFORD JUNIOR …, priority 2018, dated 2025).

Target: T1, recombinant soluble human B7-H3 ectodomain protein (Homo sapiens, UniProt Q5ZPR3)
T1 construct: incubated with 3 μM of recombinant soluble human B7-H3 ectodomain protein
T1 sequence (Q5ZPR3 29-466 limits assumed): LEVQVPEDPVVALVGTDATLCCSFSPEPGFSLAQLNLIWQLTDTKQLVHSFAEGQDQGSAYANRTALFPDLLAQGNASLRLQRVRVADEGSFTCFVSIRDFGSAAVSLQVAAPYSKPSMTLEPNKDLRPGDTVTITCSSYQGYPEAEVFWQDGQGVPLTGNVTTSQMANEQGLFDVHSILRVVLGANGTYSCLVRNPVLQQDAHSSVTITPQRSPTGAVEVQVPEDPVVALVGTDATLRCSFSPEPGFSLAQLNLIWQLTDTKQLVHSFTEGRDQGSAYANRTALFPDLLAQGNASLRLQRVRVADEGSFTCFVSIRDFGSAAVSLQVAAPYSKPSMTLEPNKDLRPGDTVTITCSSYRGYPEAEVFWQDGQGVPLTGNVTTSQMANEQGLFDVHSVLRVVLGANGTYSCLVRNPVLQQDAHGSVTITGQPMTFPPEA
Assay: Streptavidin bead binding to recombinant soluble human B7-H3 ectodomain by flow cytometry
Conditions: ligand immobilized to streptavidin magnetic beads; 3 μM recombinant soluble human B7-H3 ectodomain
Source text: FIG. 9. Production and validation of ABYB7-H3.(A) Left panel: Commassie Blue staining of SDS-PAGE showing high purity and expected size (7,490 Da) of finalized ABYB7-H3 produced in E. Coli. Right panel: Mass spectrometric analysis of ABYB7-H3 showing a mass-to-charge peak (m/z=7,546) corresponding to ABY molecular weight. A doubly charged peak (m/z=3763) is also present. Amino acid sequence of ABYB7-H3 (SEQ ID NO:28) is shown on the bottom. (B) Flow cytometry of biotin-ABYB7-H3 conjugated streptavidin-microbeads complex showing binding to soluble recombinant B7-H3 (3 μM) as detected by APC conjugated anti-B7-H3 antibody. Unconjugated beads (negative control) and anti B7-H3 antibody (AB) conjugated beads (positive control) were also tested for binding to soluble B7-H3 antigen.
Production of ABYB7-H3. Development of a B7-H3-binding ligand from an ABY yeast display library is described in Example 1. […] ABYB7-H3 ligand was recombinantly expressed in E. coli, purified, and functionalized with 1:1 molar ratio of biotin. […] In order to confirm binding specificity of recombinantly produced ABYB7-H3 to its target, biotinylated-ABY was immobilized to streptavidin- magnetic beads and incubated with 3 μM of recombinant soluble human B7-H3 ectodomain protein.

- binding to soluble B7-H3: 81%
B1: anti- B7-H3 antibody: biotinylated anti-B7-H3 antibody conjugated to beads as positive control (protein)
VHH: QVQLVESGGGLVQPGGSLRLSCAASGFTFSSYWMYWVRQTPGKGLEWVSTINRDGSATWYADSVKGRFTISRDNAKNTGYLQMNSLKPDDTAVYYCVSDPDNYSSDEMVPYWGQGTQVTVSS
